From article PMC7334433, “Enzymatic characterization and structure-function relationship of two chitinases, LmChiA and LmChiB, from Listeria monocytogenes” (Heliyon, 2020)

Tested on: CC(=O)N[C@H]1[C@H](Oc2ccc([N+](=O)[O-])cc2)O[C@H](CO)[C@@H](O[C@@H]2O[C@H](CO)[C@@H](O)[C@H](O)[C@H]2NC(C)=O)[C@@H]1O
Experiment: purified protein
Settings: 20 mM sodium phosphate pH 7.4, 37 °C (standard assay), substrate 0.05–0.45 mM

| Substance | Km [µM] | kcat [s⁻¹] | kcat/Km [M⁻¹ s⁻¹] |
| --- | --- | --- | --- |
| LmChiA (Listeria monocytogenes EGD-e) | 1622 ± 13 | 33.6 ± 1 | 20000 |
| LmChiB (Listeria monocytogenes EGD-e) | 375 ± 27 | 72.1 ± 1.4 | 190000 |
